From publication PMC5690536

Target: GST-CD11a αI-domain
Assay: radioligand binding

- Kd: 656 nM
Substance: 32P-labeled pkISG15 (from UniProt P05161 1-157) (natural protein)
